Laboratory results published in patent publication US20240409645A1 (DUALYX, published 2024).
Like-named read-outs stand apart in the source and are kept apart here.

B1: DC00075 (other)
chain 1: QVQLVESGGGLVQAGGSLRLSCAASGIPFDNYAMGWFRQAPGKEREFVAARDLEGIITRYGDSVKGRFTISRGNAKNTVFLQMNSLKPEDTAVYYCAARDGGVVAGSRSSAQYNYWGQGTQVTVSSDKTHTCPPCPAPEAAGGPSVFLFPPKPKDTLMISRTPEVTCVVVDVSHEDPEVKFNWYVDGVEVHNAKTKPREEQYNSTYRVVSVLTVLHQDWLNGKEYKCKVSNKALGAPIEKTISKAKGQPREPQVYTLPPSRDELTKNQVSLTCLVKGFYPSDIAVEWESNGQPENNYKTTPPVLDSDGSFLLYSKLTVDKSRWQQGNVFSCSVMHEALHNHYTQKSLSLSPGK
chain 2: EVQLVESGGGLVQTGGSLRLSCAASGGTFSRDAMAWFRQVPGKEREFVALISWSGATTNYADSVKGRFAISRDNGKNTVYLQMNRLKPADTAIYYCAADRRPMGSRSYFEPTEYDDWGQGTQVTVSSGGGGSGGGGSGGGGSQVQLVESGGGLVQPGGSLRLSCATSGFTFRNNFMSWVRQAPGKGLEWVSTISYGGESTTYAESVKGRFTISRDNAKNTLYLQMNNLKPEDTAVYYCAKATSYDSIRSGSRGQGTQVTVSSGGGGSGGGGSGGGGSQVQLVESGGGLVQAGGSLTLSCAAPGRTFGTDVVGWFRQAPGKEREFVASISRSGDGIYYDDSVKGRFTISRNNAWNTVNLQMNSLKVEDTAVYYCAAGDGWSTYDYWGQGTQVTVSSGGGGSGGGGSGGGGSDKTHTCPPCPAPEAAGGPSVFLFPPKPKDTLMISRTPEVTCVVVDVSHEDPEVKFNWYVDGVEVHNAKTKPREEQYNSTYRVVSVLTVLHQDWLNGKEYKCKVSNKALGAPIEKTISKAKGQPREPQVYTLPPSRDELTKNQVSLTCLVKGFYPSDIAVEWESNGQPENNYKTTPPVLDSDGSFFLYSRLTVDKSRWQQGNVFSCSVMHEALHNHYTQKSLSLSPGK
B2: DC00076 (other)
chain 1: B1 chain 1
chain 2: QVQLVESGGGLVQPGGSLRLSCATSGFTFRNNFMSWVRQAPGKGLEWVSTISYGGESTTYAESVKGRFTISRDNAKNTLYLQMNNLKPEDTAVYYCAKATSYDSIRSGSRGQGTQVTVSSGGGGSGGGGSGGGGSQVQLVESGGGLVQAGGSLTLSCAAPGRTFGTDVVGWFRQAPGKEREFVASISRSGDGIYYDDSVKGRFTISRNNAWNTVNLQMNSLKVEDTAVYYCAAGDGWSTYDYWGQGTQVTVSSGGGGSGGGGSGGGGSEVQLVESGGGLVQTGGSLRLSCAASGGTFSRDAMAWFRQVPGKEREFVALISWSGATTNYADSVKGRFAISRDNGKNTVYLQMNRLKPADTAIYYCAADRRPMGSRSYFEPTEYDDWGQGTQVTVSSGGGGSGGGGSGGGGSDKTHTCPPCPAPEAAGGPSVFLFPPKPKDTLMISRTPEVTCVVVDVSHEDPEVKFNWYVDGVEVHNAKTKPREEQYNSTYRVVSVLTVLHQDWLNGKEYKCKVSNKALGAPIEKTISKAKGQPREPQVYTLPPSRDELTKNQVSLTCLVKGFYPSDIAVEWESNGQPENNYKTTPPVLDSDGSFFLYSRLTVDKSRWQQGNVFSCSVMHEALHNHYTQKSLSLSPGK
B3: DC00050 (other)
chain 1: QVQLVESGGGLVQPGGSLRLSCATSGFTFRNNFMSWVRQAPGKGLEWVSTISYGGESTTYAESVKGRFTISRDNAKNTLYLQMNNLKPEDTAVYYCAKATSYDSIRSGSRGQGTQVTVSSGGGGSGGGGSGGGGSQVQLVESGGGLVQPGGSLRLSCATSGFTFRNNFMSWVRQAPGKGLEWVSTISYGGESTTYAESVKGRFTISRDNAKNTLYLQMNNLKPEDTAVYYCAKATSYDSIRSGSRGQGTQVTVSSDKTHTCPPCPAPEAAGGPSVFLFPPKPKDTLMISRTPEVTCVVVDVSHEDPEVKFNWYVDGVEVHNAKTKPREEQYNSTYRVVSVLTVLHQDWLNGKEYKCKVSNKALGAPIEKTISKAKGQPREPQVYTLPPSRDELTKNQVSLTCLVKGFYPSDIAVEWESNGQPENNYKTTPPVLDSDGSFLLYSKLTVDKSRWQQGNVFSCSVMHEALHNHYTQKSLSLSPGK
chain 2: QVQLVESGGGLVQPGGSLRLSCATSGFTFRNNFMSWVRQAPGKGLEWVSTISYGGESTTYAESVKGRFTISRDNAKNTLYLQMNNLKPEDTAVYYCAKATSYDSIRSGSRGQGTQVTVSSGGGGSGGGGSGGGGSEVQLVESGGGLVQTGGSLRLSCAASGGTFSRDAMAWFRQVPGKEREFVALISWSGATTNYADSVKGRFAISRDNGKNTVYLQMNRLKPADTAIYYCAADRRPMGSRSYFEPTEYDDWGQGTQVTVSSGGGGSGGGGSGGGGSQVQLVESGGGLVQAGGSLTLSCAAPGRTFGTDVVGWFRQAPGKEREFVASISRSGDGIYYDDSVKGRFTISRNNAWNTVNLQMNSLKVEDTAVYYCAAGDGWSTYDYWGQGTQVTVSSGGGGSGGGGSGGGGSDKTHTCPPCPAPEAAGGPSVFLFPPKPKDTLMISRTPEVTCVVVDVSHEDPEVKFNWYVDGVEVHNAKTKPREEQYNSTYRVVSVLTVLHQDWLNGKEYKCKVSNKALGAPIEKTISKAKGQPREPQVYTLPPSRDELTKNQVSLTCLVKGFYPSDIAVEWESNGQPENNYKTTPPVLDSDGSFFLYSRLTVDKSRWQQGNVFSCSVMHEALHNHYTQKSLSLSPGK
B4: DC00052 (other)
chain 1: B3 chain 1
chain 2: QVQLVESGGGLVQAGGSLTLSCAAPGRTFGTDVVGWFRQAPGKEREFVASISRSGDGIYYDDSVKGRFTISRNNAWNTVNLQMNSLKVEDTAVYYCAAGDGWSTYDYWGQGTQVTVSSGGGGSGGGGSGGGGSQVQLVESGGGLVQPGGSLRLSCATSGFTFRNNFMSWVRQAPGKGLEWVSTISYGGESTTYAESVKGRFTISRDNAKNTLYLQMNNLKPEDTAVYYCAKATSYDSIRSGSRGQGTQVTVSSGGGGSGGGGSGGGGSEVQLVESGGGLVQTGGSLRLSCAASGGTFSRDAMAWFRQVPGKEREFVALISWSGATTNYADSVKGRFAISRDNGKNTVYLQMNRLKPADTAIYYCAADRRPMGSRSYFEPTEYDDWGQGTQVTVSSGGGGSGGGGSGGGGSDKTHTCPPCPAPEAAGGPSVFLFPPKPKDTLMISRTPEVTCVVVDVSHEDPEVKFNWYVDGVEVHNAKTKPREEQYNSTYRVVSVLTVLHQDWLNGKEYKCKVSNKALGAPIEKTISKAKGQPREPQVYTLPPSRDELTKNQVSLTCLVKGFYPSDIAVEWESNGQPENNYKTTPPVLDSDGSFFLYSRLTVDKSRWQQGNVFSCSVMHEALHNHYTQKSLSLSPGK
B5: DC00051 (other)
chain 1: B3 chain 1
chain 2: QVQLVESGGGLVQAGGSLTLSCAAPGRTFGTDVVGWFRQAPGKEREFVASISRSGDGIYYDDSVKGRFTISRNNAWNTVNLQMNSLKVEDTAVYYCAAGDGWSTYDYWGQGTQVTVSSGGGGSGGGGSGGGGSEVQLVESGGGLVQTGGSLRLSCAASGGTFSRDAMAWFRQVPGKEREFVALISWSGATTNYADSVKGRFAISRDNGKNTVYLQMNRLKPADTAIYYCAADRRPMGSRSYFEPTEYDDWGQGTQVTVSSGGGGSGGGGSGGGGSQVQLVESGGGLVQPGGSLRLSCATSGFTFRNNFMSWVRQAPGKGLEWVSTISYGGESTTYAESVKGRFTISRDNAKNTLYLQMNNLKPEDTAVYYCAKATSYDSIRSGSRGQGTQVTVSSDKTHTCPPCPAPEAAGGPSVFLFPPKPKDTLMISRTPEVTCVVVDVSHEDPEVKFNWYVDGVEVHNAKTKPREEQYNSTYRVVSVLTVLHQDWLNGKEYKCKVSNKALGAPIEKTISKAKGQPREPQVYTLPPSRDELTKNQVSLTCLVKGFYPSDIAVEWESNGQPENNYKTTPPVLDSDGSFFLYSRLTVDKSRWQQGNVFSCSVMHEALHNHYTQKSLSLSPGK

Experiments:
[1] = target: T1, human IL-2 receptor (IL-2Rα/IL-2Rβ/γc) (human, UniProt P01589 22-272; P14784 27-551; P31785 23-369); assay: cell-based or functional assay
T1 sequence 1: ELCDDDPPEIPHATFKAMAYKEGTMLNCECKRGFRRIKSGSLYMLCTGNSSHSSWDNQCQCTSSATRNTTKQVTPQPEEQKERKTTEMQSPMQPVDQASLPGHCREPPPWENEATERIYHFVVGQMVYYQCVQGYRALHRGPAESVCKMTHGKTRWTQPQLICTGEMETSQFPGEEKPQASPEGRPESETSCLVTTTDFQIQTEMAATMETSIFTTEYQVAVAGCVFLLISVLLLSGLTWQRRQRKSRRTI
T1 sequence 2: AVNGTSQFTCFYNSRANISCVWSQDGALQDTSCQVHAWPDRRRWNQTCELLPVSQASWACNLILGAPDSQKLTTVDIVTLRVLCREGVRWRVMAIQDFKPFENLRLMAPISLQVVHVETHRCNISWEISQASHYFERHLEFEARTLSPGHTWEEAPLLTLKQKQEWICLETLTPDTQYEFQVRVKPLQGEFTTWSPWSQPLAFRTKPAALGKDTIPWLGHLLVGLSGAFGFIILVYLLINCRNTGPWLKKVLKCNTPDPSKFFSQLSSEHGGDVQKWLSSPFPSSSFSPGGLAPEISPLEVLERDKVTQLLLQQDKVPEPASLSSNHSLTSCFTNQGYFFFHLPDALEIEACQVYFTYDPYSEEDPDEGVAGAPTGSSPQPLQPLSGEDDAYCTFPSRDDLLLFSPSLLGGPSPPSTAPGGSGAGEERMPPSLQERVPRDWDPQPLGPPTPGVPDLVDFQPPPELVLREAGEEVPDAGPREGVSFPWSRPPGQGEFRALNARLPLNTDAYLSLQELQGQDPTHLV
T1 sequence 3: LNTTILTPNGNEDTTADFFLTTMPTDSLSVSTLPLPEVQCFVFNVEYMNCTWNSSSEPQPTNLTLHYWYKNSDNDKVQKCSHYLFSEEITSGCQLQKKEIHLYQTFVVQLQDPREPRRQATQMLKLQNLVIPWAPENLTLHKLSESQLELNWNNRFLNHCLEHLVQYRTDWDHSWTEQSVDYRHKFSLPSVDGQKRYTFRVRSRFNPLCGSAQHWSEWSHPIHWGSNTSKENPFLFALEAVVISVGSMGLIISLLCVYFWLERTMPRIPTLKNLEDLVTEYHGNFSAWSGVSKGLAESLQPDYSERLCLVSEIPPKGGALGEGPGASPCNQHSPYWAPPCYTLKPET

[2] = target: T1, human IL-2 receptor (IL-2Rα/IL-2Rβ/γc); assay: cell-based or functional assay; remark: listed apart in the source

Row | Binder | EC50 (nM) pSTAT5, NK, human PBMCs [1] | EC50 (nM) pSTAT5, Treg, human PBMCs [1] | Fold Max signal (% pSTAT5+) Treg/NK [1] | Max signal (% pSTAT5+), NK [1] | Max signal (% pSTAT5+), Treg [1] | fold EC50 NK/Treg [1] | EC50 (nM) pSTAT5, NK, human PBMCs [2] | EC50 (nM) pSTAT5, Treg, human PBMCs [2] | Fold Max signal (% pSTAT5+) Treg/NK [2] | Max signal (% pSTAT5+), NK [2] | Max signal (% pSTAT5+), Treg [2] | fold EC50 NK/Treg [2]
1 | B1 | 0.0032 nM | < 0.1 pM | 12 fold | 4.31 % pSTAT5+ | 53.1 % pSTAT5+ | > 32 fold |  |  |  |  |  | 
2 | B2 | 2.42 nM | < 0.1 pM | 4 fold | 14 % pSTAT5+ | 59.4 % pSTAT5+ | > 24200 fold |  |  |  |  |  | 
3 | B3 |  |  |  |  |  |  | 0.0326 nM | 0.00134 nM | 7 fold | 8 % pSTAT5+ | 56 % pSTAT5+ | 24 fold
4 | B4 |  |  |  |  |  |  | 0.0812 nM | 0.00403 nM | 8 fold | 9 % pSTAT5+ | 79 % pSTAT5+ | 20 fold
5 | B5 |  |  |  |  |  |  | 0.191 nM | < 0.1 pM | 3 fold | 33 % pSTAT5+ | 96 % pSTAT5+ | > 1910 fold
